Results published in patent US6613531B2, “Sigma binding region of RNA polymerase and uses thereof” (priority 2000, dated 2003).

Tests used:
labeled σ^70 and β′ = labeled σ^70 and β′ (Escherichia coli, UniProt P00579+P0A8T7, C132S/C291S/C295S/S442C); settings: 10 nM labeled σ^70, 50 nM labeled β′
Method: The assay was performed in NTG-buffer (200 μL total volume) plus 2.5% DMSO (when insoluble additives were used) with 10 nM σ^70* (labeled protein) and 50 nM β′* (labeled protein). Labeled σ^70 was added first to the assay, then the potential inhibitor and denatured labeled β′ was added last, mixing the solution well after the addition of each component. The mixture was incubated for 5 minutes at RT and measured in a 96-well plate (Costar 3650) with a multi-plate reader (Wallac, VictorV^2 1420). For this time-resolved fluorescence measurement, the manufacturer's protocol (LANCE high count 615/665) was used (excitation with 1000 flashes, at 325 nm, measurement was delayed by 100 μs and acquired for 50 μs at 615 and 665 nm). […] The IC5-emission is corrected for the very small amount of signal from the Eu-emission band (by cross talk measurement of a standard) and then divided by the intensity of the Eu signal. […] The nature of this method allows the differentiation of the loss of signal due to real inhibition from simple absorption caused by the inner filter effect from the substance.

σ^70 [1] = target: T1, σ^70 (Escherichia coli, UniProt P00579); settings: for ability to bind σ^70 compared to wt β′1-319 fragment: normalized to amount of fragment
Method: Cells containing truncated β′ expression plasmids pTA610-620 were grown to an A600 of 0.6-0.8 and induced with 1 mM IPTG. The cells were grown for an additional 30 minutes. A 200 μl sample was removed and sonicated 3×30 seconds. Twenty μl of glycerol and 20 μl of SDS-sample buffer were added and heated for 2 minutes at 95° C. then stored at −20° C. until use. The lysates were separated by SDS-PAGE. The proteins were electrophoretically transferred onto 0.05 μm nitrocellulose.
The blot was dried and the signal was visualized with a PhosphorImager and quantitated with IMAGEQUANT software (Molecular Dynamics).
This method was initially employed to detect the functionality of the β′ mutants. The mutations were cloned into a gene fragment coding for amino acid residues 1-319 of the β′ subunit. […] Samples were analyzed for binding σ^70 by far Western analysis The amount of σ^70 probe bound by each β′1-319 mutant fragment was compared to the amount bound by wt β′1-319 fragment. Each signal was normalized to the amount of β′1-319 contained in the supernatant as determined by Western blotting.
Target sequence in this assay (P00579 whole entry, the tested form may be a part): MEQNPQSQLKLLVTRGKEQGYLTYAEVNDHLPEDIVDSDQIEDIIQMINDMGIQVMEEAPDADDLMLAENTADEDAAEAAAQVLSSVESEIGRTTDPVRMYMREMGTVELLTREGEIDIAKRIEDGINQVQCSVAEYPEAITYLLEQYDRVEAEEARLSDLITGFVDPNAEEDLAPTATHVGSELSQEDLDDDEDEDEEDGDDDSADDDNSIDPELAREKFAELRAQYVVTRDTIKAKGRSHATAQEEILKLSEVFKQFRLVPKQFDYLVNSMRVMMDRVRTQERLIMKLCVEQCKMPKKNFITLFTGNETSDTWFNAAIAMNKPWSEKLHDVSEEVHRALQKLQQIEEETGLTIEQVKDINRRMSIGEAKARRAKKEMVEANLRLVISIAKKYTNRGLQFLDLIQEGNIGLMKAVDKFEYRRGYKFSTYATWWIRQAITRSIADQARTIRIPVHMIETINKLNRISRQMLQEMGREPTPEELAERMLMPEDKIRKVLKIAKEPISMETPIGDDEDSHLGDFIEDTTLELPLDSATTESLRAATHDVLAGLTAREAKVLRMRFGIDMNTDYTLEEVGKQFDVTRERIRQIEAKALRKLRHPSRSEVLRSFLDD

strain RL602 = assay: Growth with plasmid-derived wild type or mutant β′ as sole source of β′ subunit; format: cell-based; settings: 42° C., mutant β′ as sole source of β′
Method: Plasmids pTA577, 600-609 (0.1 μg) were transformed into strain RL602 (Weilbaecher et al., 1994; Ridley et al., 1982). After heat shock and incubation on ice, 300 μl of LB was added to the 50 μl cell mixture. Ten μl of the transformation reaction was spotted onto LB plates plus ampicillin (100 μg/ml) and incubated at 30° C. Another 10 μl was spotted onto plates and incubated at 42° C. The plates were incubated between 24-48 hours and assessed for growth.
To assess the importance of the σ^70 binding site in vivo, the ability of mutant β′ subunits to function as the cell's sole source of β′ was assessed. Plasmids containing either mutant or wild type, full length β′ were transformed into strain RL602 (Weilbaecher et al., 1994; Ridley et al., 1982). The chromosomal rpoC gene of RL602 has an amber mutation that prevents functional β′ from being produced in the absence of a suppressor tRNA. RL602 also has a chromosomal, temperature-sensitive, amber suppressor. At the permissive temperature (30° C.) the amber suppressor is active and allows chromosomal β′ to be produced and the cell can grow. The amber suppressor is not active at the non-permissive temperature (42° C.). Therefore, at 42° C., chromosomal β′ is not made and the cell cannot grow without another source of β′. If the plasmid-derived β′ can complement the loss of β′, the cells will grow and form colonies on plates at the non-permissive temperature. If the mutant β′ cannot complement, there will be no growth on the plates at this temperature.

σ^70 [2] = target: T1, σ^70; settings: for Eσ^70 formation / binding σ^70: log and stationary phase samples
Method: (§1) One L flasks containing 200 ml of LB with ampicillin (100 μg/ml) and IPTG (0.15 mM) were inoculated with 200 μl from an overnight culture of cells containing plasmids pTA561, 577, 600-609. The cultures were grown at 37° C. with shaking until the A600=0.4 for log phase assays and 2 hours longer (A600 about 2.0) for the early stationary phase assays. The cells were harvested by centrifugation at 6,000 rpm for 10 minutes and stored at −20° C. until use. The cell pellets were resuspended in 5 ml TE (10 mM Tris-HCl, pH 7.9 and 0.1 mM EDTA) plus 0.15 M NaCl and lysozyme (0.1 mg/ml) then incubated on ice for 15 minutes. The cells were sonicated 2×30 seconds and centrifuged for 25 minutes at 27,000×g to pellet the insoluble material. The supernatant was loaded onto a 1.5 ml immunoaffinity column containing the polyol-responsive, anti-β′ monoclonal antibody (MAb), NT73 (Thompson et al., 1992). The column was washed with 15 ml TE plus 0.15 M NaCl followed by a second wash with 10 ml TE plus 0.5 M NaCl. The protein was eluted from the column with 4 ml TE plus 0.7 M NaCl and 30% propylene glycol. The eluted sample (4 ml) was diluted with 6 ml buffer B (20 mM Tris-HCl, pH 7.9, 500 mM NaCl, 5 mM imidazole, 0.1% (v/v) Tween 20, and 10% (v/v) glycerol) and loaded (2×) onto 500 μl of Ni^2+-NTA resin. The resin was washed (2×) with 5 ml of buffer B and eluted with 0.5 ml buffer B plus 0.25 M imidazole. Samples from the elution fractions were assayed by Western blot as described above using Mabs to each subunit or σ factor. The secondary antibodies were horseradish peroxidase-labeled goat antimouse IgG antibodies and the signal was generated using the ECL+ substrate system (Amersham) and detected using the STORM FluoroImager and quantitated with IMAGEQUANT software (Molecular Dynamics).
(§2) To evaluate the potential assembly defects caused by the various mutations, His6-tagged, mutant β′ subunits were expressed in cells that were also expressing wild type, chromosomal β′ proteins. A Ni^2+-NTA column was used to purify the mutant β′ subunits together with associated cell proteins. An immunoaffinity column was used to clean-up the samples in order to reduce any non-specific binding to the Ni^2+-NTA column.
Target sequence in this assay (P00579 whole entry, the tested form may be a part): as above
Target sequence in this assay (P0A8T7 whole entry, further chain, the tested form may be a part): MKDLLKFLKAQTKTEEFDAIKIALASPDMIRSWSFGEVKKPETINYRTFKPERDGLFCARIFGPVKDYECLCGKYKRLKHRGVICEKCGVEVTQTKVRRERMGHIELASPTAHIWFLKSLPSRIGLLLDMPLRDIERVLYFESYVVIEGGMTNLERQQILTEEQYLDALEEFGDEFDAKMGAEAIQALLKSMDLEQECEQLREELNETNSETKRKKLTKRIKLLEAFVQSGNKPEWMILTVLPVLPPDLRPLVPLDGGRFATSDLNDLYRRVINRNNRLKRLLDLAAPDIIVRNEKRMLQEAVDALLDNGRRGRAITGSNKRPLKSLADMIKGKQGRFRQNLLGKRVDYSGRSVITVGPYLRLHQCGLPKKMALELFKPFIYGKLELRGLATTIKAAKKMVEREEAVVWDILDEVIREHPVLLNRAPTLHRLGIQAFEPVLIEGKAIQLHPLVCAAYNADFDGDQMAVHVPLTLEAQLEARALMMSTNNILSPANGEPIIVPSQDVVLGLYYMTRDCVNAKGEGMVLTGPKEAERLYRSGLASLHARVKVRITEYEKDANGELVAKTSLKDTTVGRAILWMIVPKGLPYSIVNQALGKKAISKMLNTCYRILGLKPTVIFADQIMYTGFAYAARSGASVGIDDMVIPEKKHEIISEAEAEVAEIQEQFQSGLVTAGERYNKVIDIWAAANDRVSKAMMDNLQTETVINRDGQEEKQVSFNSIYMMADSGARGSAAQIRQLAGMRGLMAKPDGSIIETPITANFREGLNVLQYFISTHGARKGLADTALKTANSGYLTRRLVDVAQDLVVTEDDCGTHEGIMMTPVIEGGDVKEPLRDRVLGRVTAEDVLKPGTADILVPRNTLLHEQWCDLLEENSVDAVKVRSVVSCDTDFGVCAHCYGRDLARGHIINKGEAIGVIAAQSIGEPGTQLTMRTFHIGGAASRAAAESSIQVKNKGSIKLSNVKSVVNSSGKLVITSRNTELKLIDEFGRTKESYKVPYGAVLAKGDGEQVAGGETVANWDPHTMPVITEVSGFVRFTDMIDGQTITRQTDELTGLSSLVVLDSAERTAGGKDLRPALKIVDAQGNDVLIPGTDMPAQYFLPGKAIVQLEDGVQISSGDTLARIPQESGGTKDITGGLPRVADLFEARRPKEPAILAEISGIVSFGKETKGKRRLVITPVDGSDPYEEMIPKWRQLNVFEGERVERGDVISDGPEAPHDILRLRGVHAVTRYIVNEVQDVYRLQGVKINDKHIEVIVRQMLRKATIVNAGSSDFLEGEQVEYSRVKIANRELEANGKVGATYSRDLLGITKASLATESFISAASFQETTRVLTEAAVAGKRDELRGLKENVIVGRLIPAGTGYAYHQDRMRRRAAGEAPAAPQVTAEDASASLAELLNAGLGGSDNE
Target sequence in this assay (P0A8V2 whole entry, further chain, the tested form may be a part): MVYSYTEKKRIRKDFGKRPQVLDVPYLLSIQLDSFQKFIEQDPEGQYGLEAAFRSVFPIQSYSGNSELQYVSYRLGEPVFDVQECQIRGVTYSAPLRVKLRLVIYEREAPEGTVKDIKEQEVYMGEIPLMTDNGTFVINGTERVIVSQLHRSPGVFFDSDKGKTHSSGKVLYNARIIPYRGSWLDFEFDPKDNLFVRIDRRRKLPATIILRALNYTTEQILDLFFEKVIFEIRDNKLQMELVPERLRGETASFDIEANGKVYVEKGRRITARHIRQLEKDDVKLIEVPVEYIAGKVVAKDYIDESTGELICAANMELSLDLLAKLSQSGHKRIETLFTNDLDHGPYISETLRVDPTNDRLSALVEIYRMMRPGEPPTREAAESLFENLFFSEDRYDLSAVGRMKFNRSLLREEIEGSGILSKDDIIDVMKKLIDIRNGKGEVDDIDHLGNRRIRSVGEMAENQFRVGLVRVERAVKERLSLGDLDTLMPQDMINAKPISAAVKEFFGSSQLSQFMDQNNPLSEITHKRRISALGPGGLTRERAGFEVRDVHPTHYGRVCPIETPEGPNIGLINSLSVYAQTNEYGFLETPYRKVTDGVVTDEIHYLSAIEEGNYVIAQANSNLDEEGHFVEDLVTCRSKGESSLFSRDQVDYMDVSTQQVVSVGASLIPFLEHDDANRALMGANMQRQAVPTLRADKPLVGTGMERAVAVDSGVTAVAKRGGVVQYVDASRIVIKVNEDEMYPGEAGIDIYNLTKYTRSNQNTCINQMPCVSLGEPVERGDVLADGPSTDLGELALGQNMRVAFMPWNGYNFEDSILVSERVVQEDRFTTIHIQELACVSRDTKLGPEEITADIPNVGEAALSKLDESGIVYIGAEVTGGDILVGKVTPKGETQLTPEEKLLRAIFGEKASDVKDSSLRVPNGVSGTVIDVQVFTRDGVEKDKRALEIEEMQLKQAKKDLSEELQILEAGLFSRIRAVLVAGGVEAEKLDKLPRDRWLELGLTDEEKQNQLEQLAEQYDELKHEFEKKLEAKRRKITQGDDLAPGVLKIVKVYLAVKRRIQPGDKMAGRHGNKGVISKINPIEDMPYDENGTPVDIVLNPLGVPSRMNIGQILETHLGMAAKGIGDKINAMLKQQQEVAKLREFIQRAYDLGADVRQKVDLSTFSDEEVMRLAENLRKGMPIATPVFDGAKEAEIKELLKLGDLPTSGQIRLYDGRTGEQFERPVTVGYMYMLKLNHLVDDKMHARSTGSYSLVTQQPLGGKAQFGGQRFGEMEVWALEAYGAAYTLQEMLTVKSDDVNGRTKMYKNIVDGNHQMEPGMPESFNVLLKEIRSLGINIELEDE
Target sequence in this assay (P0A7Z4 whole entry, further chain, the tested form may be a part): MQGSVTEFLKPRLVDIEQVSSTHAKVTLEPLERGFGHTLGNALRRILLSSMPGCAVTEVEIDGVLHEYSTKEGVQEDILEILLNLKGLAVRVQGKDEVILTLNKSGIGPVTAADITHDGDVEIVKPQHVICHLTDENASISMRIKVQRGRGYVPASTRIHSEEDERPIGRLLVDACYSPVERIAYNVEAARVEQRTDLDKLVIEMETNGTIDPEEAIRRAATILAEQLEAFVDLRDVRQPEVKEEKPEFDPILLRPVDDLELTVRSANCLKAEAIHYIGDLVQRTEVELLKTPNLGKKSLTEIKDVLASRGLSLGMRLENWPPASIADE

σ^F = σ^F (Escherichia coli, UniProt P0AEM6); settings: stationary phase samples
Method: as §1, §2
(§3) All of the sample eluates were also assayed for the presence of any minor σ species.

σ^32 = target: T2, σ^32 (Escherichia coli, UniProt P0AGB3)
T2 sequence (P0AGB3 whole entry, looked up): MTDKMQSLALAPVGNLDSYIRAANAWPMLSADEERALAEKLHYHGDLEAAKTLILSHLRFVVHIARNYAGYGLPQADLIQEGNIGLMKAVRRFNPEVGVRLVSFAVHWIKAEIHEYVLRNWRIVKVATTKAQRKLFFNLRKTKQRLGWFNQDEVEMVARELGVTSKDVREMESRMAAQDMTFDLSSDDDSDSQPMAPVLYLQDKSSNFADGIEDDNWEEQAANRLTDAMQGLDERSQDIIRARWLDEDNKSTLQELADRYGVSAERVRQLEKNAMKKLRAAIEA
Method: as §1, §2, §3

Chain of labeled σ^70 and β′ (P00579 whole entry C132S/C291S/C295S/S442C, the tested form may be a part): as the sequence (P00579 whole entry, the tested form may be a part) above, with C132S, C291S, C295S, S442C counted along it
Chain of labeled σ^70 and β′ (P0A8T7 100-309): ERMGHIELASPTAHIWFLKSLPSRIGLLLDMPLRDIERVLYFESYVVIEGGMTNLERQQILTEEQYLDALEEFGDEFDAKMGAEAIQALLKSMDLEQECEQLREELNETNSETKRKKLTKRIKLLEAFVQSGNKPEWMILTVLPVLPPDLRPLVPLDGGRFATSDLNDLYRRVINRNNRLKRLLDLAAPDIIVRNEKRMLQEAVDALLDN

Molecule: C[S+](C)[O-] [DMSO]
- effect on LRET signal / competition (labeled σ^70 and β′): no significant effect

Molecule: CCO [ethanol]
- effect on LRET signal / competition (labeled σ^70 and β′): significant effect

Molecule: A302D (FATSDLNDLYRRVINRNNRLKRLLDLAAPDIIVRNEKRMLQEDVDALLDN)
- ability to bind σ^70 compared to wt β′1-319 fragment (σ^70 [1]): greatly reduced
- growth at the non-permissive temperature (strain RL602): could not support growth
- Eσ^70 formation / binding σ^70 (σ^70 [2]): defects in binding σ^70

Molecule: E295K (FATSDLNDLYRRVINRNNRLKRLLDLAAPDIIVRNKKRMLQEAVDALLDN)
- ability to bind σ^70 compared to wt β′1-319 fragment (σ^70 [1]): greatly reduced
- growth at the non-permissive temperature (strain RL602): could not support growth
- Eσ^70 formation / binding σ^70 (σ^70 [2]): defects in binding σ^70

Molecule: K280E (FATSDLNDLYRRVINRNNRLERLLDLAAPDIIVRNEKRMLQEAVDALLDN)
- ability to bind σ^70 compared to wt β′1-319 fragment (σ^70 [1]): no effects on binding
- growth at the non-permissive temperature (strain RL602): no detectable effects on growth
- Eσ^70 formation / binding σ^70 (σ^70 [2]): no detectable affect

Molecule: N266D (FATSDLDDLYRRVINRNNRLKRLLDLAAPDIIVRNEKRMLQEAVDALLDN)
- ability to bind σ^70 compared to wt β′1-319 fragment (σ^70 [1]): no effects on binding
- growth at the non-permissive temperature (strain RL602): allowed some growth
- Eσ^70 formation / binding σ^70 (σ^70 [2]): reduced

Molecule: N309D (FATSDLNDLYRRVINRNNRLKRLLDLAAPDIIVRNEKRMLQEAVDALLDD)
- ability to bind σ^70 compared to wt β′1-319 fragment (σ^70 [1]): binding more σ^70 than wild type
- growth at the non-permissive temperature (strain RL602): no detectable effects on growth
- Eσ^70 formation / binding σ^70 (σ^70 [2]): no detectable affect

Molecule: Q300E (FATSDLNDLYRRVINRNNRLKRLLDLAAPDIIVRNEKRMLEEAVDALLDN)
- increase in relative binding (σ^70 [1]; versus wild type β′1-319): greater than 7 fold
- ability to bind σ^70 compared to wt β′1-319 fragment (σ^70 [1]): binding more σ^70 than wild type
- σ^F levels (σ^F): greatly reduced
- amount of σ^32 (σ^32; log phase samples): decreased amount
- σ^32 levels (σ^32; stationary phase samples): greatly reduced
- growth at the non-permissive temperature (strain RL602): no detectable effects on growth

Molecule: R275Q (FATSDLNDLYRRVINQNNRLKRLLDLAAPDIIVRNEKRMLQEAVDALLDN)
- ability to bind σ^70 compared to wt β′1-319 fragment (σ^70 [1]): greatly reduced
- growth at the non-permissive temperature (strain RL602): could not support growth
- Eσ^70 formation / binding σ^70 (σ^70 [2]): defects in binding σ^70

Molecule: R293Q (FATSDLNDLYRRVINRNNRLKRLLDLAAPDIIVQNEKRMLQEAVDALLDN)
- ability to bind σ^70 compared to wt β′1-319 fragment (σ^70 [1]): greatly reduced
- growth at the non-permissive temperature (strain RL602): could support growth
- Eσ^70 formation / binding σ^70 (σ^70 [2]): no detectable affect

Molecule: R297S (FATSDLNDLYRRVINRNNRLKRLLDLAAPDIIVRNEKSMLQEAVDALLDN)
- ability to bind σ^70 compared to wt β′1-319 fragment (σ^70 [1]): greatly reduced
- binding of the minor sigmas (σ^32; minor σ's at detectable levels: σ^32 and σ^F): increased binding
- growth at the non-permissive temperature (strain RL602): could support growth
- Eσ^70 formation (σ^70 [2]; log phase samples): reduced

Molecule: Y269A (FATSDLNDLARRVINRNNRLKRLLDLAAPDIIVRNEKRMLQEAVDALLDN)
- ability to bind σ^70 compared to wt β′1-319 fragment (σ^70 [1]): no effects on binding
- growth at the non-permissive temperature (strain RL602): no detectable effects on growth
- Eσ^70 formation / binding σ^70 (σ^70 [2]): no detectable affect
